We go through one molecule from patent US10760112B2, “Enzymatic activity assays for glucocerebrosidase” (Shire Human Genetic Therapies, Inc., priority 2014, dated 2020).

Series [1] can be described thus: Enzyme kinetics assay with C18:1 glucosylceramide substrate, glucose detected by HPAEC-PAD. In kind it is biochemical. On the procedure: Sonication was used to achieve a consistent substrate preparation. A sonicator was pre-set to 60% AMPL and 5 minutes. A 4 oz. amber bottle of substrate dilution buffer (4 mM taurocholic acid, 0.2% v/v oleic acid in citrate/phosphate buffer pH 5.0) was placed in the noise isolation chamber and the sonicator probe was immersed into the solution. The substrate dilution buffer was sonicated at 60% AMPL for 5 minutes. Following sonication, the noise isolation chamber was opened. A second cycle of sonication at 60% AMPL for 5 minutes was initiated while the amber bottle was gently swirled. After 5 minutes, the substrate dilution buffer was cloudy. Approximately 15-20 mg of C18:1 glucosylceramide was weighed in a clean 2 oz. amber bottle. Sonicated substrate dilution buffer was added to bring the concentration of C18:1 glucosylceramide to 0.64 mg/mL (approximately 880 μM). Next, the same sonication steps were repeated for the 2 oz. amber bottle of 880 μM C18:1 glucosylceramide, with the additional consideration that, prior to the step of gently swirling the bottle while sonicating, it was ensured that all substrate particles were in the biphasic mixture. Sonication and swirling were continued until there were no visible particles in the mixture.
After the sonication procedure, two stocks were prepared for use in the assay. A first reagent reservoir filled with sonicated substrate dilution buffer. A second reagent reservoir was filled with 6 mL sonicated substrate dilution buffer and 2 mL of the 880 μM C18:1 glucosylceramide (final substrate concentration of 220 μM C18:1 glucosylceramide).
A dilution series of substrate was prepared in a 96-well plate having columns 1-12, rows A-H, and a well volume of 0.5 mL. Each well of rows A-G was filled with 170 μL substrate dilution buffer. In addition, 200 μL substrate solution of different concentrations were transferred to the appropriate wells of rows A to G according to Table 2. Substrate dilution buffer and substrate solution were mixed by pipetting.
Frozen experimental and assay control samples were thawed in a 37° C. water bath for <5 min. In the present examples, the sample is a sample of enzyme. After thawing, each tube was placed on ice. Dilutions of the samples were then prepared at room temperature. To prepare the sample dilutions, sample dilution buffer (50 mM citrate buffer pH 6.0, 0.75 mg/ml BSA) was placed on ice in centrifuge tubes, each tube containing 990 μL sonicated sample dilution buffer. Tubes of sample dilution buffer were briefly vortexed (1-3 seconds) and pulse centrifuged to collect the liquid to the bottom of the tube. A 10 μL aliquot of each sample was transferred into a dedicated tube of sample dilution buffer to prepare a 1:100 dilution. Samples were diluted in triplicate. Samples were briefly vortexed to ensure proper mixing. Next, a 10 μL aliquot of each of 1:100 diluted sample was transferred to a dedicated second tube having been preloaded with 990 μL sample dilution buffer, resulting in a 1:10,000 dilution. Samples were briefly vortexed to ensure proper mixing. Next, the 1:10,000 dilution was used to prepare a 1 mL dilution having a final concentration of 0.02 ng/μL. In particular, the volume of the 1:10,000 dilution needed to dilute the enzyme to 0.02 ng/μL in 1 mL was determined and transferred from the second tube into the a third dedicated tube preloaded with an amount of sample dilution buffer calculated to result in a total volume of 1 mL at 0.02 ng/μL. Accordingly, when 10 μL of 0.02 ng/μL enzyme is mixed with 100 μL of substrate solution, the final concentration of enzyme is 0.0290 nM, assuming a monomer with a relative molecular mass of 62.8 kDa. Samples were briefly vortexed to ensure proper mixing. Final dilution tubes were placed on ice.
Briefly, velaglucerase alfa was incubated with C18:1 glucosylceramide at eight concentrations of substrate (2.70-200 μM) and in 110 μL reactions for 20 min at 37° C. with appropriate standards and/or controls. […]

Series [2] can be described thus: Velaglucerase activity at varying levels of sodium taurocholate. In kind it is biochemical. Particulars: range tested 2 mM to 25 mM sodium taurocholate. The method, then: Assays of velaglucerase activity were carried out in the presence of varying levels of sodium taurocholate or oleic acid. Sodium taurocholate is an anionic detergent that has been, in some cases, used to facilitate lipid-based substrate solubility in aqueous environments. The effect of sodium taurocholate was examined over a concentration range of 2 mM to 25 mM (FIG. 6).

[3] abbreviates: Photo Stress (forced degradation, oxidation by light exposure).

B1: velaglucerase: recombinant form of glucocerebrosidase approved as long-term enzyme replacement therapy for Gaucher disease (SEQ ID NO: 1) (protein)
chain: ARPCIPKSFGYSSVVCVCNATYCDSFDPPTFPALGTFSRYESTRSGRRMELSMGPIQANHTGTGLLLTLQPEQKFQKVKGFGGAMTDAAALNILALSPPAQNLLLKSYFSEEGIGYNIIRVPMASCDFSIRTYTYADTPDDFQLHNFSLPEEDTKLKIPLIHRALQLAQRPVSLLASPWTSPTWLKTNGAVNGKGSLKGQPGDIYHQTWARYFVKFLDAYAEHKLQFWAVTAENEPSAGLLSGYPFQCLGFTPEHQRDFIARDLGPTLANSTHHNVRLLMLDDQRLLLPHWAKVVLTDPEAAKYVHGIAVHWYLDFLAPAKATLGETHRLFPNTMLFASEACVGSKFWEQSVRLGSWDRGMQYSHSIITNLLYHVVGWTDWNLALNPEGGPNWVRNFVDS
With B1, in series [1] (Baseline (unstressed control)), the Km was 4.9 µM and the kcat came out at 90.7 s⁻¹. Also, in series [1] (setting [3]), the Km is 6.7 µM and the kcat turned out to be 76.8 s⁻¹. The “change in kcat, stressed sample vs baseline” value in series [1] (photo stress vs unstressed control) is recorded as “clear decrease”. Also, in series [1] (photo stress vs unstressed control, not considered significant), the “change in Km, stressed sample vs baseline” value is “minor increase”. In series [2], the “optimal concentration of sodium taurocholate” value was 6.5 mM and the “sodium taurocholate concentration above which activity gradually declined” value was “above 8 mM”.
